In a protein production outcome set (Wang et al. 2014):

Test: label from the status in PepcDB records
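Also: failed if final PepcDB status was selected cloned or expressed and not failed if soluble or beyond.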

Sequence | protein production
MTETNESSGVNLKKDVKFSIIIPAHNEEKYIRKCLDSIAKASEAYKEQTEVIVVLNRCTDKTEEIAKSYNCVTLKNNDKNLSKIRNAGAKIANGEIIVTIDADTIMTESMLSNVDKYLASGKYIGGGVNGKFERISLGIFLSAMLIIIPLLFKYGAISVGIFWCYRKDFMAINGFNENMLMAEDADFAKRLKEWGKKNNKKFGTIKNGMITSCRRFDTYGDWTLLKNPKVILAYLKGNDRKYADKTYYDNQER | failed
MFTFGFTNPEGTPDFSTPGLICIAILYIVGIYINFVFTIRRLHDRNNTGWLSLLMLVPVVNIGLAIYLFCAKGTEGPNDYGPKRPTPSWERVLGWIYIALIPLALIFGVIAVIMAPTYEGYVEKSESIVIGSPSQSE | failed
MASSTRSTRSTPARGKSKGASGNVTPWLWMAFALLVVMIDQFFKVVITRSFQYGESRPITSFFNLVLVYNKGAAFSFLADAGGWQRWFFTLLGVVVGAFIIWLLYRHTGQKLFCLAVSLILGGAVGNVVDRIIHGHVIDFLDFHLRNTHFPAFNVADCAITLGAILLIVDELRRVRRH | failed
ENEIERPEDMRVRTLANKSKMKVSIVQQIDRKVALDDIAVSHGLDFPELLSEVETIVYSGTRINIDYFINEVMDEDHLEDIFEYFKESTTDSLEEAMQELGKDYSEEEIRLVRIKFLSEMAN | not failed
MTQRPRQDERAKDVWFEYVLTAGRFSAWPIRWQGWLATALLIVGPITGMMAIAKLAPGVPPFVLVLGAMTVCFGTVFPLAYFKGRPAKSRG | failed
QLPSYRFNPNNHQSEQTLCVVCMCDFESRQLLRVLPCNHEFHAKCVDKWLKANRTCPICRAD | not failed
MPQFPWKDNDAELSPLEAFLAEWDDPEAEEEDFRNDFFRGSEGRRKKAAVMLMAIWTVVITLHYWVWGSWLVWALTGALSLQALRLMKATPEEAPPLLTGDASTVPYPQVCLMVAAKNEEAVIGKIVQQLCSLDYPGDRHEVWIVDDNSTDRTPAILDQLRQQYPQLKVVRRGAGASGGKSGALNEVLAQTQGDIVGVFDADANVPKDLLRRVVPYFASPTFGALQVRKAIANEAVNFWTRGQGAEMALDAYFQQQRIVTGGIGELRGNGQFVARQALDAVGGWNEQTITDDLDLTIRLHLHQWKVGILVNPPVEEEGVTTAIALWHQRNRWAEGGYQRYLDYWRWICTQPMGWKKKLDLFSFLLMQYLLPTAAVPDLLMALWQRRFPLLTPLSYLAIGFSCWGMYYGLKRLTPSEGESPWQQMPALLARTIGGTIYMFHWLIIMPAVTARMAFRPKRLKWVKTVHGAATEDALELKQS | failed
MKGDRLADIRTIGVVVLYRPDSSVLDAIASYRHQVHELIVVDNSEEQDHKLHSRLRDRFGATIVGEGRNLGIAAALNRAAREALAEGFDLLLTMDQDSRAEPGMVEQMLACLGSDWRERVGLIAPFHLTGARPAPGGTTPCSDVMTPMTSGCLVNLAAFREVGPFRDDFFIDFVDNEYCLRLRKKGFQVVRANRALLHHRVGDLRRYGPFVATHHSPLRRYYKTRNRCAVFAEYLRDFPVHCLFDLVRLGKEVASILIFEREKTAKLRMMWRGFLDFRRGRFGPYGGLEHHHHHH | failed
MQSRLSKILRSSVVGVAVLALLAGCSNNADDTDADSTSTGNSAFPVSIEHEFGTTTIDDVPERVVTLGVTDADIVLALGTVPVGNTGYKFFENGLGPWTDELVEGKELTLLDSDSTPDLEQVAALEPDLIIGVSAGFDDVVYEQLSDIAPVVARPAGTAAYAVAREEATNLVARAMGQSEKGQELNEETDALIQAARDENPSFDGKTGTVILPYQGKYGAYLPGDARGQFLDSLGISLPEAVLSRDTGDSFFVDVPAESVKDVDGDVLLVLSNDENLDITAENPLFETLNVVQKDAVIVATTEERGAITYNSVLSVPFALEHLAPRIAEALK | failed
MEKMYNVGKIVNTHGLIGEIRVIATTDFPEERFQVGNTVYLFEKNSKKPEKLIIRSHRKHKNFDLLMFEGLTGIHQVERMKEGVLKIKEAQLTDLEENEFYFHEIIGTVVTTDGEELGEITEILTPGANDVWVVKGADKKEKLIPYIADVVKDINTNDKKITIEVMEGLLDLEHHHHHH | failed
MKRIILLAFLCTTTLVMAQRINHVQEAIANYDYEAALTLIAKEKPTIPLLLQKGKAQRGLGMNTEALSTYQEIIANDTANTRAYIEAAECCRSLAKYQQALKYYEQALDLNPENKYVRIQYIGLLLSLQKFQDALGESSLMTEKDSSAIALHLQAQSFEGMGELLPATGCYYNIQEKYPDDYLAAAKLAALNIAGSYFNEAIEATEKYRQTDTTNIAVNRQNALAYCLNKDYPTAIQRYEYLVSQGDSSFHTCYYLGISYYAEEKYYEAHDFLEAARKHDPENVNLLYYLGRACAKTSWKKLGVEYLEKALDLTIPKDSNMVRLYIGMTDCYKMAQMPKEQIESIRERYRKYDKQNHKLLYDMAFIYFYSLKDKKNTERCLEAFLKTRPKEDKEEEAKLNERGELVLGTKNYYNAAANWLKDIQSKQKIEDFFLGGNVPAQKPE | failed
SLMDVKCETPNCPFFMSVNTQPLCHECSERRQKNQN | not failed
MSLPTEMHHNLGAEKRSAVATTIDSFKERSQKVRALSDPNVRFVPFFGSSEWLRFDGAHPAVLAEKYNRSYRPYLLGQGGAASLNQYFGMQQMLPQLENKQVVYVISPQWFSKNGYDPAAFQQYFNGDQLTSFLKHQSGDQASQYAATRLLQQFPNVAMKDLVQKLASKEELSTADNEMIELLARFNERQASFFGQFSVRGYVNYDKHVAKYLKILPDQFSYQAIEDVVKADAEKNTSNNEMGMENYFYNEQIKKDLKKLKDSQKSFTYLKSPEYNDLQLVLTQFSKSKVNPIFIIPPVNKKWMDYAGLREDMYQQTVQKIRYQLESQGFTNIADFSKDGGEPFFMKDTIHLGWLGWLAFDKAVDPFLSNPTPAPTYHLNERFFSKDWATYDGDVKEFQEGHHHHHH | not failed
GQRQPSEQELLFRQQALLLEQQRIHQLRNYQASMEAAGIPVSFGGHRPLSRAQSSPASATFPVSVQEPPTKPRFTTGLVYDTLMLKHQCTCGSSSSHPEHAGRIQSIWSRLQETGLRGKCECIRGRKATLEELQTVHSEAHTLLYGTNPLNRQKLDSKKLLGSLASVFVRLPCGGVGVDSDTIWNEVHSAGAARLAVGCVVELVFKVATGELKNGFAVVRPPGHHAEESTPMGFCYFNSVAVAAKLLQQRLSVSKILIVDWDVHHGNGTQQAFYSDPSVLYMSLHRYDDGNFFPGSGAPDEVGTGPGVGFNVNMAFTGGLDPPMGDAEYLAAFRTVVMPIASEFAPDVVLVSSGFDAVEGHPTPLGGYNLSARCFGYLTKQLMGLAGGRIVLALEGGHDLTAICDASEACVSALLGNELDPLPEKVLQQRPNANAVRSMEKVMEIHSKYWRCLQRTTSTAGRSLIEAQTCENEEAETVTAMASLSVGVKPA | failed
MTNKITERITGHTELIGLIATPIRHSLSPTMHNEAFAKLGLDYVYLAFEVGDKELKDVVQGFRAMNLRGWNVSMPNKTNIHKYLDKLSPAAELVGAVNTVVNDDGVLTGHITDGTGYMRALKEAGHDIIGKKMTICGAGGAATAICIQAALDGVKEISIFNRKDDFYANAEKTVEKINSKTDCKAQLFDIEDHEQLRKEIAESVIFTNATGVGMKPFEGETLLPSADMLRPELIVSDVVYKPTKTRLLEIAEEQGCQTLNGLGMMLWQGAKAFEIWTHKEMPVDYIKEILF | not failed
ARHPDLVSCLTLLQAGDVAAFTVWKAARDPKGVLATPILGHVAMRRMAPKRMPAWYALSVGKADMISELCRCAERSFQHGAQWSLASAYQCYMDPAVELPRPHQPLLSIWGGADFSHPAGNEHSIRRLRPDAVCVTFDDLGHTPELEDPIRVFDAIVRFCEA | failed
MVVVCASHIQPAIICRFTWLRFLMEIILIRHGKPTSANNPVLNAVDFTKWVRRYNFSDVSTNSRPDSILDEYKSHYIVSSDLERAIHSASIYTGQSPELTSKLYREMEIPRYKFPLRFKAMTWVYINRAFWMLGLKGSFESYRQAKIRAELASDHLVELAREQDKVILFGHGYLNLHIRRSLIKKGWKLNSKSNGFWGISSLEGLEHHHHHH | failed
MKVLIGGYTKKTSKGIYELPFIGEDNEAHLEKAENIISVGGPTYFQKDGDLVFTINNAGDEGGISAFKLSDHGSNEIDRHLTPGASPAYIGINKEKKLLYTANYHTAVLSVFQYSNSGKLALVAQTTHKAESLGPRPEQVDGPHPHFFDETPAGNLVSCDLGNDTVDFYRLENNELKHLAQYKNEAGFGDRHIVFSKDGNYFYVVGELSSQINVVKFNENTWEFEDIATYKTIPEDFTEHNGAAALYITNDGKYIYNSNRGHNSITVFKVNDDHTLSLIQRISTFGDFPRDFNWDETQKYVVAANQNTDNATLYLRNGGNGTLTPIQTEIPVPEGTRVLFTKLEHHHHHH | failed
MTDQAVDTGGSQLPGNEQRPAAAPAPTVSQFLGRTRELKELRADIERAGLDTLSGRKAPRARVLLIAGRPGSGRTALAEELVRQVADRYRDGVLRARLTEPDGTPVPTERTARELLAALEVATPPGAAEDDLTEALREALADRRTLLLLDDVAAAEQVDALLPGTPDCLVVAVSEGPLTGIADVRPCTLGGLDTKSALELLGRLTGAVRITVDPRAAEGLVEECAGQPLALVLAGSWLAARPQAAVADLAKQLRSEGDEGPPTARLFRLAYAGLPATAQRILRLLSLAPAGLVDPHTASALAGCSVSAAHTTLDDFAALGLVRLLESPLPQYEVPGSLLPLLRALAESRERPAELQLARARMLERTVRLLQSCRAITETDSIEAREKLLGMPRTLRFPNPRAAADWLRVRQPALLAAARSAVADGELDTLARRLMSQLVRAMVAHFGTQASAPELYGIHRLVLDVAERRNLPREQAAALLNLADLDTRTGRTTEALARYRAALDAGREANDPYATGRAMESVGGAHQELGDYDRAADWYGRALAQRLARDERVDAARLYGRIATAHTYAGRYGEALRNWRSAVAGHRKNGDVAAQARALSELARVQEYAGRPEESLRTCQEAVEWARRADDVRLQAALQLRLADTLEHLGDPAAAKLHRGAAERMLGEELLESDSGAEQAPNACEIRSASSKD | failed
MTTIRRFSCNDLLRFTSVNLDHLTETFNMSFYMTYLARWPDYFHVAEGPGNRVMGYIMGKVEGQGESWHGHVTAVTVSPEYRRQQLAKKLMNLLEDISDKIDKAYFVDLFVRASNTPAIKMYEKLGYIIYRRVLRYYSGEEDGLDMRKALSRDVEKKSVIPLKRPITPDELEYD | failed
MYSNSKCNKFLMYFIFIIFLFCSCQTFYPKNSPEFSFIENSGKNFVWEKLTEGIFLSHIKYEDYPLIIHAVKIDLTNPKLKIVVTEPALFNSKGMVKRETTLSFARRHNTVIALNAAFFNVISFSFSLRGEPLGIHIDKKINLSKPFPKYGALCFLDDNSAFIIESQNTEDIKADIEYAVSGNRIILKNGKPIITNISKKENSRTCVGLADGGKTLYLFFAEGENKKKSRGITYDQAHFFMKKLGAQDAIHLDGGGSSSLIIKKENSFFVQVPSISHFGLRKVVTNLGFIIED | failed
STRRVSVRDKLLVKEVAELEANLPCTCKVHFPDPNKLHCFQLTVTPDEGYYQGGKFQFETEVPDAYNMVPPKVKCLTKIWHPNITETGEICLSLLREHSIDGTGWAPTRTLKDVVWGLNSLFTDLLNFDDPLNIEAAEHHLRDKEDFRNKVDDYIKRYAR | not failed
